Measurements: the supplement of paper PMC10567573
± gives the standard deviation.

Test: protein stability index of a GFP-peptide fusion (GPS, HEK-293T) (PSI 1-6); higher = more stable
Conditions: c terminus: a fixed tail appended
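Note: 24-mer peptide tiles fused after GFP, lentivirally expressed, FACS-sorted into six equal bins by GFP/DsRed ratio, decoded by Illumina sequencing, PSI is the read-weighted mean bin number.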

For PEPWPGGCTGDEAESRGHSKGWGR [MYCL], which protein stability index (treatment: DMSO) is on record?
The protein stability index was 4.18 ± 0.12.

And the protein stability index (treatment: MLN4924 1 uM, 8 h)?
The protein stability index was 4.46 ± 0.56.

For LDPDTMHARLRLSADRLTVRCGLL [TRIM14], which protein stability index (treatment: DMSO) is on record?
Its protein stability index is 2.51 ± 0.16.

What about the protein stability index (treatment: MLN4924 1 uM, 8 h) of the same sequence?
The protein stability index was 2.48 ± 0.25.

With SNHSAQDSAVENLLLLSKAKLVPS [IKZF1] as the sequence, how does the protein stability index (treatment: DMSO) read?
The protein stability index was 3.81 ± 0.22.

And the protein stability index (treatment: MLN4924 1 uM, 8 h)?
Its protein stability index is 3.95 ± 0.32.

For ADTGRIHRFVEKPQVFVSNKINAG [GMPPB], which protein stability index (treatment: DMSO) is on record?
Its protein stability index is 3.46 ± 0.32.

And the protein stability index (treatment: MLN4924 1 uM, 8 h)?
Its protein stability index is 3.84 ± 0.18.

For LPCVVQEGAIVMARGRHVGSSETN [PYCR3], which protein stability index (treatment: DMSO) is on record?
The protein stability index was 4.42 ± 0.36.

With LDSIIDDRVILSSSTSCLMPSKLF [CRYL1] as the sequence, how does the protein stability index (treatment: DMSO) read?
The protein stability index was 2.71 ± 0.38.

What about the protein stability index (treatment: MLN4924 1 uM, 8 h) of the same sequence?
The protein stability index was 2.77 ± 0.21.

With GIGKNVICDRTATPLDAFRMTSAA [GFOD1] as the sequence, how does the protein stability index (treatment: DMSO) read?
Its protein stability index is 3.43 ± 0.25.

What about the protein stability index (treatment: MLN4924 1 uM, 8 h) of the same sequence?
The protein stability index was 3.45 ± 0.17.

Which protein stability index (treatment: DMSO) does the source give for PTPSTPRPTPQDWLHRRAQILEIL [ADAMTS4] here?
The protein stability index was 2.97 ± 0.23.

What about the protein stability index (treatment: MLN4924 1 uM, 8 h) of the same sequence?
The protein stability index was 2.98 ± 0.25.

For VVDKDKRNQCRYCRLKKCFRAGMK [HNF4A], which protein stability index (treatment: DMSO) is on record?
The protein stability index was 2.51 ± 0.065.

What about the protein stability index (treatment: MLN4924 1 uM, 8 h) of the same sequence?
The protein stability index was 2.75 ± 0.39.

What does the source list for SPPVDLFATASAAVPVSTSKPSSD [SNAP91]?
protein stability index (treatment: DMSO): 5.31 ± 0.12; protein stability index (treatment: MLN4924 1 uM, 8 h): 5.33 ± 0.17

For ELAFAEDLVLDEEGARAAGLGELG [ESRRA], which protein stability index (treatment: DMSO) is on record?
Its protein stability index is 5.24 ± 0.2.

And the protein stability index (treatment: MLN4924 1 uM, 8 h)?
Its protein stability index is 5.19 ± 0.27.

For SSTTILVQWKEPEEPNGQIQGYRV [PTPRD], which protein stability index (treatment: DMSO) is on record?
The protein stability index was 2.91 ± 0.32.

And the protein stability index (treatment: MLN4924 1 uM, 8 h)?
The protein stability index was 2.71 ± 0.46.

Which protein stability index (treatment: DMSO) does the source give for SEARLSQRDLSPTAEDAELSDFEE [FCHSD1] here?
The protein stability index was 5.44 ± 0.38.

What about the protein stability index (treatment: MLN4924 1 uM, 8 h) of the same sequence?
The protein stability index was 5.53 ± 0.39.

For RKKTLVPGPPGSSRPVKGQVVTVH [FKBP8], which protein stability index (treatment: DMSO) is on record?
Its protein stability index is 3.53 ± 0.31.

And the protein stability index (treatment: MLN4924 1 uM, 8 h)?
The protein stability index was 3.46 ± 0.2.

Which protein stability index (treatment: DMSO) does the source give for SPSCPEEALAATWEQPWASEVFGP [PXN] here?
The protein stability index was 3.62 ± 0.24.

What about the protein stability index (treatment: MLN4924 1 uM, 8 h) of the same sequence?
The protein stability index was 3.63 ± 0.14.

For GSFTVRADHGEPIGRGTKVILHLK [HSP90AB1], which protein stability index (treatment: DMSO) is on record?
The protein stability index was 2.1 ± 0.3.

And the protein stability index (treatment: MLN4924 1 uM, 8 h)?
Its protein stability index is 2.71 ± 0.3.

Which protein stability index (treatment: DMSO) does the source give for MYFSQEEWELLDPTQKALYNDVMQ [ZNF75A] here?
The protein stability index was 3.67 ± 0.08.

And the protein stability index (treatment: MLN4924 1 uM, 8 h)?
The protein stability index was 3.74 ± 0.33.

What does the source list for NKFASFIDKVRFLEQQNQVLETKW [KRT71]?
protein stability index (treatment: DMSO): 2.58 ± 0.42; protein stability index (treatment: MLN4924 1 uM, 8 h): 2.49 ± 0.4

For EQIRFVMKAHSFVRENVPRVLNSA [SOAT1], which protein stability index (treatment: DMSO) is on record?
The protein stability index was 2.58 ± 0.46.

What about the protein stability index (treatment: MLN4924 1 uM, 8 h) of the same sequence?
The protein stability index was 2.48 ± 0.41.

Which protein stability index (treatment: DMSO) does the source give for QSPVSPQPPAITQVHRQGERRREL [SMTNL2] here?
The protein stability index was 5.26 ± 0.14.

And the protein stability index (treatment: MLN4924 1 uM, 8 h)?
The protein stability index was 5.12 ± 0.42.

For LKNIRHRPGGGRVKIESVKLDFKE [MAP2], which protein stability index (treatment: DMSO) is on record?
Its protein stability index is 3.22 ± 0.29.

What about the protein stability index (treatment: MLN4924 1 uM, 8 h) of the same sequence?
The protein stability index was 3.52 ± 0.38.

What does the source list for FKKFIRRDFLLDEANGLLPDDKLT [SPOPL]?
protein stability index (treatment: DMSO): 2.27 ± 0.097; protein stability index (treatment: MLN4924 1 uM, 8 h): 2.41 ± 0.24

Which protein stability index (treatment: DMSO) does the source give for SGVGIDGEVLSYLELAQFHNAHQL [RHOBTB1] here?
The protein stability index was 2.56 ± 0.33.

And the protein stability index (treatment: MLN4924 1 uM, 8 h)?
Its protein stability index is 2.67 ± 0.45.

For EALLDRESENASLREKLRLREAEI [LRRC45], which protein stability index (treatment: DMSO) is on record?
Its protein stability index is 4.77 ± 0.26.

And the protein stability index (treatment: MLN4924 1 uM, 8 h)?
Its protein stability index is 4.89 ± 0.083.

Which results are given for QLPPASRCVLVFEQVRFLMKSYSF [SOAT2]?
protein stability index (treatment: DMSO): 2.71 ± 0.67; protein stability index (treatment: MLN4924 1 uM, 8 h): 1.95 ± 0.1

Which results are given for SLFARAMQVLVTAISPGRFPEALD [ANKRD9]?
protein stability index (treatment: DMSO): 3.04 ± 0.31; protein stability index (treatment: MLN4924 1 uM, 8 h): 2.8 ± 0.54

What does the source list for DSSSSCSDHCITSSDMMDSSSFSN [VDR]?
protein stability index (treatment: DMSO): 4.94 ± 0.28; protein stability index (treatment: MLN4924 1 uM, 8 h): 5.01 ± 0.27

For ASFRVTTGTSNTTAIKSIEFARKG [RBBP5], which protein stability index (treatment: DMSO) is on record?
Its protein stability index is 3.91 ± 0.62.

What about the protein stability index (treatment: MLN4924 1 uM, 8 h) of the same sequence?
The protein stability index was 3.86 ± 0.23.

For TSWSQHCPWEPQKQPPWEFLQVLE [SPAG8], which protein stability index (treatment: DMSO) is on record?
The protein stability index was 2.31 ± 0.13.

What about the protein stability index (treatment: MLN4924 1 uM, 8 h) of the same sequence?
Its protein stability index is 2.55 ± 0.29.

For AILMKAYQRFRQKSKASFLLLASG [PTGFR], which protein stability index (treatment: DMSO) is on record?
The protein stability index was 3.41 ± 0.86.

What about the protein stability index (treatment: MLN4924 1 uM, 8 h) of the same sequence?
Its protein stability index is 2.83 ± 0.41.

For EKSHQVLAQLLDTLLAIGTKLPEN [INTS4], which protein stability index (treatment: DMSO) is on record?
Its protein stability index is 3.14 ± 0.82.

What about the protein stability index (treatment: MLN4924 1 uM, 8 h) of the same sequence?
The protein stability index was 3.2 ± 0.86.

For AMAMGTPSTTERISTSGQAGTSSH [PXN], which protein stability index (treatment: DMSO) is on record?
Its protein stability index is 4.86 ± 0.31.

And the protein stability index (treatment: MLN4924 1 uM, 8 h)?
Its protein stability index is 4.98 ± 0.1.

For QDLIEDLKLARKAYHDPMLKLSIM [NET1], which protein stability index (treatment: DMSO) is on record?
Its protein stability index is 2.33 ± 0.38.

What about the protein stability index (treatment: MLN4924 1 uM, 8 h) of the same sequence?
Its protein stability index is 2.46 ± 0.26.

For GGTSWTAYSLNKIHAYNLGTNAWE [KLHDC10], which protein stability index (treatment: DMSO) is on record?
Its protein stability index is 2.12 ± 0.34.

And the protein stability index (treatment: MLN4924 1 uM, 8 h)?
The protein stability index was 2.08 ± 0.3.

Which results are given for FHGKYSTINPLWHIRHLGWNPDAR [GLT8D2]?
protein stability index (treatment: DMSO): 2.57 ± 0.39; protein stability index (treatment: MLN4924 1 uM, 8 h): 2.31 ± 0.21

For IGGFTALHYAAMHGRARIARLMLE [ASB7], which protein stability index (treatment: DMSO) is on record?
Its protein stability index is 2.15 ± 0.23.

What about the protein stability index (treatment: MLN4924 1 uM, 8 h) of the same sequence?
Its protein stability index is 2.31 ± 0.22.

Which protein stability index (treatment: DMSO) does the source give for IVLDRALHIPMYFFLAILSCSEIC [OR10K2] here?
Its protein stability index is 3.1 ± 0.18.

What about the protein stability index (treatment: MLN4924 1 uM, 8 h) of the same sequence?
Its protein stability index is 3.19 ± 0.29.

What does the source list for EFLRVQEERILHQQVKCIITEEKV [VPS39]?
protein stability index (treatment: DMSO): 3.08 ± 0.26; protein stability index (treatment: MLN4924 1 uM, 8 h): 2.92 ± 0.3

Which protein stability index (treatment: DMSO) does the source give for ENILSFMSYDEISQLRLVCKRMDL [FBXO28] here?
Its protein stability index is 2.32 ± 0.21.

What about the protein stability index (treatment: MLN4924 1 uM, 8 h) of the same sequence?
The protein stability index was 2.35 ± 0.28.

What does the source list for LEIVGREGVSLTAVLTTHHHWDHA [HAGHL]?
protein stability index (treatment: DMSO): 2.59 ± 0.34; protein stability index (treatment: MLN4924 1 uM, 8 h): 2.32 ± 0.44

With SYRSFHSGGYGQDALGMDPMMEHE [CTNNB1] as the sequence, how does the protein stability index (treatment: DMSO) read?
The protein stability index was 4.29 ± 0.2.

And the protein stability index (treatment: MLN4924 1 uM, 8 h)?
Its protein stability index is 4.21 ± 0.25.

For SNIKFCSFHPLQYIGFYGKETTNT [PDS5B], which protein stability index (treatment: DMSO) is on record?
The protein stability index was 2.1 ± 0.47.

What about the protein stability index (treatment: MLN4924 1 uM, 8 h) of the same sequence?
The protein stability index was 2.29 ± 0.16.

With DGAWCAGRNDLQQWIEVDARRLTR [CPXM2] as the sequence, how does the protein stability index (treatment: DMSO) read?
The protein stability index was 3.48 ± 0.35.

And the protein stability index (treatment: MLN4924 1 uM, 8 h)?
The protein stability index was 3.95 ± 0.52.

For LCKNCFYLSNARPDNWFCYPCIPN [ZMYND11], which protein stability index (treatment: DMSO) is on record?
Its protein stability index is 2.2 ± 0.29.

What about the protein stability index (treatment: MLN4924 1 uM, 8 h) of the same sequence?
The protein stability index was 2.23 ± 0.053.

What does the source list for PGFSSLSLSDQMSVLQSVWMEVLV [ESRRA]?
protein stability index (treatment: DMSO): 2.38 ± 0.33; protein stability index (treatment: MLN4924 1 uM, 8 h): 2.08 ± 0.27
